Source: the DeepSol protein solubility set

Test: soluble on expression in E. coli; label from the status in PepcDB or PDB records

Row | Sequence | soluble on expression in E. coli
1 | VADVVPLDANNRILVHQGLMRIRAGRARPGLRAILEVARREPARITSTDLGFILGPRLNAAGRLDDMSLGIECLLCDDPTRAREMAVQLDELNQDRKSIEQGMQREALAQLKDLPMESMPFGLCLFDAEWHQGVIGIL | not soluble
2 | MQTPSKKYVVDIWSDFVCPWCWIAKRRFENALNRSGMQDDVQVNVRAYRLAANQAPEPMIGALKRKLGNPASADSMMSTVSKYGRADGLDYRFDTMMFGDTADAHILVKAVEDTAVKKRLVEALYEQSTSHGRSLFDRSSLEAIAREVGVSDESIQLAWSSVELRNEMKDDESFAAQLGSGVPLFVFDSSFSVSGAQPDAVFLEALNKMVANSNPEDSSMMGQVCSIDGCKVLEHHHHHH | not soluble
3 | MALPKLTDEQRKEALAKAAEARKARAELKEQLKRSDITLKEVLDKASSDEIIGKTKVSALLESLPKVGKVKAKEIMEELEIAQTRRLRGLGDRQRRALLERFGYSED | not soluble
4 | MKILPLALFIIPFLAGCGANNTPPQTPIPGEKTSAKLRTLETGAAAIQSRPPVDAISTYLDGFHFYSGDKNGQMEAHHYVTVLNEDVMQAVIYDGNTKNARLMGVEYIISERLFKTLPPEEKKLWHSHQYEVKSGSLVAPGLPQVADKALMSKIVNTYGKTWHTWHTDRDKTLPMGIPALMMGFTGDGQLDPALLADRDRRLGIDTQAIKRERQDLPEHPVVKGANAWEQGEVIQLQRVQGSGEHGRGDTAHFGTSEQSRQLEHHHHHH | soluble
5 | CATGTRQSPINIQWKDSVYDPQLAPLRVSYDAASCRYLWNTGYAFQVEFDDSCEDSGISGGPLGNHYRLKQFHFHWGATDEWGSEHAVDGHTYPAELHLVHWNSTKYENCKKASVGENGLAVIGVFLKLGAHHQALQKLVDVLPEVRHKDTQVAMGPFDPSCLMPACRDYWTYPGSLTTPPLAESVTWIVQKTPVEVSPSQLSMFRTLLFSGRGEEEDVMVNNYRPLQPLRDRKLRSSFRLDRTKMRS | soluble
6 | GPGSMSHNVRPSRYAVSQSKARIFVGQLEPYVTEQDLYPVFSCYGKILHLNIVRHSTTVTPNEERRIPTAFVWYETTTEADAAIAALHNVFTFSSPDEEENKVRYIQVSYADKSPECTPWGRWQKTQAEIMRRTNPSGTGTGSNMPGQYSHITGGGPSTYSSSALNNDGGFTVSATGPAIRSSQSSGDISSMRYPRNPARGLRSMAPHIDHPEVQYYSSYDNLYNLGNRNQLYSMGGAANSMMGYTKHRGMPPHESTSSGDLGRGSTSSFWNMSEEVKKNTAANPNRFRHTARYTAPEPDEDLIMAAPTFTVTSGP | not soluble
7 | SILELAEYTYFPPTLMASLILKNCDFSRKSINWLFKHLDCIENRRLRKEVRKALNADYFFSPRAHEMQCRKGEMGEEIVRKWLDDREIAYCTEAEIRAKGDGKTPDFVLSNPIFIEDHMVSWIESKALFGDDFEHKHYAKKQFREYADIFGEGMVVYWYGFLEDLSSEDEGYLIKDYRFFEGYQEQTDEL | soluble
8 | MAKIAAIFQLLDKNVTVSSHRLELLSPARDAAIAREAILHGADAVYIGGPGFGARHNASNSLKDIAELVPFAHRYGAKIFVTLNTILHDDELEPAQRLITDLYQTGVDALIVQDMGILELDIPPIELHASTQCDIRTVEKAKFLSDVGFTQIVLARELNLDQIRAIHQATDATIEFFIHGALCVAYSGQCYISHAQTGRSANRGDCSQACRLPYTLKDDQGRVVSYEKHLLSMKDNDQTANLGALIDAGVRSFKIEGRYKDMSYVKNITAHYRQMLDAIIEERGDLARASSGRTEHFFVPSTEKTFHRGSTDYFVNARKGDIGAFDSPKFIGLPVGEVVKVAKDHLDVAVTEPLANGDGLNVLIKREVVGFRANTVEKTGENQYRVWPNEMPADLHKIRPHHPLNRNLDHNWQQALTKTSSERRVAVDIELGGWQEQLILTLTSEEGVSITHTLDGQFDEANNAEKAMNNLKDGLAKLGQTLYYARDVQINLPGALFVPNSLLNQFRREAADMLDAARLASYQRGSRKPVADPAPVYPQTHLSFLANVYNQKAREFYHRYGVQLIDAAYEAHEEKGEVPVMITKHCLRFAFNLCPKQAKGNIKSWKATPMQLVNGDEVLTLKFDCRPCEMHVIGKIKNHILKMPLPGSVVASVSPDELLKTLPKRKG | not soluble
9 | MSCNSFFVFCANSKKEKKDKILEITPQGTTPLPCSRQSRMRDENGSTRTRGGSRGIKSSKEPDSTDDAFKEMAKRLAKKDKPEKTLDFI | soluble
